Target: plasminogen
Experiment: cell-based or functional assay

Bacteriophages which harbored K2S on gp3 (K2S-φ) (from UniProt P00750 209-562)
fibrinogen-dependent enzymatic activity (amidolytic assay with plasminogen and S-2251): < 0.25 IU/ml

Source: patent EP1343909B1
